One experiment has as its target T1, human CD36 (His-tagged) (human, UniProt P16671 30-439).
T1 construct: not shown: His tag
Kind of experiment: SPR (Biacore T200), His-captured CD36, bivalent analyte model. A general note: SPR reads the build-up and loss of mass on a sensor chip optically.

The target in experiment [1] is T2, nonhuman primate CD36 (on HEK 293 cells) (cynomolgus monkey / rhesus macaque, UniProt P16671 2-472 (human entry)).
T2 construct: also called non-human primate CD36 (cynomolgus)
T2 sequence (P16671 other isoform, or with tags, fused parts or gaps limits assumed): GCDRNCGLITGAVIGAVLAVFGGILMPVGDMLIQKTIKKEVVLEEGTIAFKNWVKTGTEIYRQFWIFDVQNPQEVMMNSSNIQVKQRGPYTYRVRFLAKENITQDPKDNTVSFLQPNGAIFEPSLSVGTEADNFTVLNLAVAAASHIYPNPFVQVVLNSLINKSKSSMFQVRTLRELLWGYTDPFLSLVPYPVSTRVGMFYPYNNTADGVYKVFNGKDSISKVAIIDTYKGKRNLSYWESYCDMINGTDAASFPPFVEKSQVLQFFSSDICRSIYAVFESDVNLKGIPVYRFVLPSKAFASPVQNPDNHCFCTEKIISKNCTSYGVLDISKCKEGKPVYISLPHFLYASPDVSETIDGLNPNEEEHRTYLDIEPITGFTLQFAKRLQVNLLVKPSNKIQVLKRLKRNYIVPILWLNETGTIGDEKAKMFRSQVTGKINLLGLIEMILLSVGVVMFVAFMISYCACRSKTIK
Description: FACS, HEK 293 cells transiently overexpressing CD36.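 Further: antibody binding to transfected cells detected by flow cytometry with a fluorescent anti-human secondary antibody, EC50 from a four-parameter sigmoidal fit of mean fluorescence intensity.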 A general note: Flow cytometry measures light scatter and fluorescence of single cells or particles in a stream.

The target of experiment [2] is T3, mouse CD36 (on HEK 293 cells) (mouse, UniProt Q08857 1-472).
T3 construct: also called Murine CD36
T3 sequence (Q08857 whole entry): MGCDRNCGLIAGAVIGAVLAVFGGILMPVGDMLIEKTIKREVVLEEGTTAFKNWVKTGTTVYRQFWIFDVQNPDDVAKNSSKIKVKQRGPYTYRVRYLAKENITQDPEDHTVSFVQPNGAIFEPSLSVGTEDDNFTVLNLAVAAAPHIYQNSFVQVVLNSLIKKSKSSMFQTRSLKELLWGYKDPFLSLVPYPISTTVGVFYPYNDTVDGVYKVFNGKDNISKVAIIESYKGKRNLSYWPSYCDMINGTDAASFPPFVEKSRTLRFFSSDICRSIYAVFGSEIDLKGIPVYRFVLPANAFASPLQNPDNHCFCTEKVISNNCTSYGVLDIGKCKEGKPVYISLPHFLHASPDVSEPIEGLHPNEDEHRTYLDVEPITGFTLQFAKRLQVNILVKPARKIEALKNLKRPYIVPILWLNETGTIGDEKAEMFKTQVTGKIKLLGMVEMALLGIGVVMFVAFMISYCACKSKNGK
The experiment is described as above.

Experiment [3] deals with T4, human CD36 (on HEK 293 or SCC25 cells) (human, UniProt P16671 2-472).
T4 construct: Overexpressed transiently or stably on HEK 293 cells, or stably on SCC25 cells; also called huCD36
T4 sequence (P16671 2-472 limits assumed): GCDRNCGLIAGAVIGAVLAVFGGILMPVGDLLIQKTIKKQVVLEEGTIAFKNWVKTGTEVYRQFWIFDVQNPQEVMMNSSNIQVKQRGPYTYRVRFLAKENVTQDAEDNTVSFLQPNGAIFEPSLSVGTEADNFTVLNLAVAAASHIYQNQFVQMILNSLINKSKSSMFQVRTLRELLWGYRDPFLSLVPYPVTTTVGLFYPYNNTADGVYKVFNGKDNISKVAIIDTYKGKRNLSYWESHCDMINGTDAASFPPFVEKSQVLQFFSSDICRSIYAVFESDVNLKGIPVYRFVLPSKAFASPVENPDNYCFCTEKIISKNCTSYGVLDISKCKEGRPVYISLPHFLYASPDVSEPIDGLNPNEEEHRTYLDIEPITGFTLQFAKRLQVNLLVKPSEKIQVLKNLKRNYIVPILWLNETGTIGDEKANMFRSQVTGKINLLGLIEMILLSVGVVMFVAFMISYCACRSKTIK
The experiment is described as above.

Experiment [4] has as its target T4, human CD36 (on HEK 293 or SCC25 cells). Kind of experiment: cell-based or functional assay.
Experiment [5] shares this target. Kind of experiment: cell-based or functional assay. The source holds these as a separate data set.
The target of experiment [6] is T5, purified biotin-tagged human CD36 (human, UniProt P16671 30-439, limits assumed, biotin tag, site not stated). Kind of experiment: AlphaScreen competition; competitor FA6-152 on acceptor beads. A general note: In Alpha technology, singlet oxygen from a donor bead excites a nearby acceptor bead.
T5 sequence (P16671 30-439 limits assumed): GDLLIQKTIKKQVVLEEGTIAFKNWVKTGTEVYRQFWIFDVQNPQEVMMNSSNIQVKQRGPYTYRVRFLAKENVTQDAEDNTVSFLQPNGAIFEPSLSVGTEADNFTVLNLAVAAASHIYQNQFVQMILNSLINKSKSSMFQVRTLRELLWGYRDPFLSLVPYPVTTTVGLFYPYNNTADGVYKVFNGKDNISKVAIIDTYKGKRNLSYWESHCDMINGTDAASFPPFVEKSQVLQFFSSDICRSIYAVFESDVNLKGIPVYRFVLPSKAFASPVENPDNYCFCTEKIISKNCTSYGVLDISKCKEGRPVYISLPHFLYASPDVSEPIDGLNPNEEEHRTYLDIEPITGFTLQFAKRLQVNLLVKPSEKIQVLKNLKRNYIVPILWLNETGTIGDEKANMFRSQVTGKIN
The target in experiment [7] is T4, human CD36 (on HEK 293 or SCC25 cells). Description: cell-based or functional assay. This is another data set of the same source.
In experiment [8] the target is T5, purified biotin-tagged human CD36. Kind of experiment: AlphaScreen competition; competitor 1G04 on acceptor beads.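 Further: streptavidin donor beads excited at 680 nm release singlet oxygen, and the light signal needs a nearby acceptor bead, with 30 min donor-bead incubation at 25 °C in the dark.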
The target in experiment [9] is T4, human CD36 (on HEK 293 or SCC25 cells). Kind of experiment: FACS, SCC25 cells stably overexpressing human CD36.
The target in experiment [10] is T5, purified biotin-tagged human CD36. Description: AlphaScreen competition; competitor 11G04 on acceptor beads.
Description: This was done using the AlphaScreen® bead-based microplate assay. […] AlphaLISA® Streptavidin Donor Beads were then added and the mix incubated for 30 min at 25° C. in the dark. The donor bead contains a photosensitizer, which upon excitation by light at 680 nm, converts oxygen (O₂) into an excited form, singlet oxygen. Singlet oxygen molecules have a reduced lifetime (4 microseconds half-life) and can diffuse approximately 200 nm in solution before falling back to ground state. In the absence of acceptor beads, the singlet oxygen molecules fall back to ground state without producing any light signal.
Experiment [11] concerns the target T4, human CD36 (on HEK 293 or SCC25 cells). Description: FACS, SCC25 cells stably expressing human CD36.
Description: SCC25 cells were treated with 10-fold serial dilution of each antibody (5 dilutions starting at 100 nM). After incubation with the cells, an anti-human fluorescently labelled antibody was added to the cell media, allowed to incubate further, and the unbound antibody was washed off of the cells. Subsequently, the cells were subjected to FACS analysis to determine antibody binding to the cells. The results were fitted to a sigmoidal titration curve. Using a nonlinear regression model, the EC₅₀ values for each antibody were calculated from the GeoMFI and MFI values using the log(agonist) versus response (four parameters) fitting on the data transformed according to X=Log[X] in GraphPad PRISM.
For experiment [12], the target named is T6, human CD36 (Sino Biological) (human, UniProt P16671 30-439).
T6 construct: Bought protein coated on ELISA plates
T6 sequence (P16671 30-439 limits assumed): as above
Kind of experiment: ELISA, plates coated with human CD36 (Sino Biological), antibody titrated, OD630nm.
Description: Binding was first tested using an ELISA assay in which 96-well ELISA plates were coated with human CD36 (Sino Biological) or mouse CD36 protein.

Some results are limits rather than exact numbers.

T1 sequence (P16671 30-439 limits assumed): as above

B1: 13G04 (antibody, human IgG1, V domains shown)
VH: QVQLQQSGAELVRPGASVKLSCKASGYTFTSYWMNWVKQRPGQGLEWIGMIDPSDNETHYNQMFKDKATLTVDKSSSTAYMQLSSLTSEDSAVYYCARSDYGNGYSFYLDVWGAGTTVTVSS
VL: DIVLTQSPASLAVSLGQRATISCRASESVDSYGNSFMHWYQQKPGQPPKLLIYRASNLESGIPARFSGSGSRTDFTLTINPVEADDVATYYCQQSNEDPWTFGGGTKLEIK
notes: Chimeric: mouse variable regions on human IgG1 LALA (L234A/L235A); also called 013G04
In the experiment with human CD36 (His-tagged), B1 yielded a Kd of 1.5 nM. The same molecule returned a koff with human CD36 (His-tagged) of 0.0037 s⁻¹. In the experiment with human CD36 (His-tagged), the kon was determined as 2.4e+06 M⁻¹ s⁻¹. The EC50 stood at 1.06 nM in experiment [1]; 5.93 nM in [2]; 0.31 nM in experiment [3]; 46.8 nM in experiment [6]; 0.17 nM in experiment [8]; 0.26 nM in experiment [9]. Also, in experiment [4], the “IC50 of oxLDL uptake inhibition (DiI-oxLDL, SCC25 cells)” value worked out at 0.26 nM. Moreover, the “IC50 of fatty acid uptake inhibition (BODIPY FL C16, HEK hCD36 cells)” value (from here on “IC50 of fatty acid uptake inhibition”) in experiment [5] worked out at 0.2 nM. In addition, in experiment [7], the “Percent Fatty Acid Uptake Inhibition” value was found to be 52.8%.

B2: 15G04 (antibody, human IgG1, V domains shown)
VH: QVQLQQSGPELVKPGASVKISCKASGYTFSTSWMNWVKQRPGQGLEWIGRIYPGDGDTNYNGKFKGKATLTADTSSSTAYMQLSSLTSVDSAVYFCAREVYYGGYEDYGMDYWGQGTSVTVSS
VL: DVVMTQTPLSLPVSLGDQASISCRSSQSLLHTNVNTYLHWYLQKPGQSPKLLIYKVSNRFSGVPDRFSGSGSGTDFTLKISRVEAEDLGVYFCSQSTHVPYTFGGGTKLEIK
notes: Chimeric: mouse variable regions on human IgG1 LALA (L234A/L235A); also called 015G04
For the molecule B2, the EC50 in experiment [1] came out at 2.2 nM; in experiment [6], 5.65 nM; in experiment [8], 0.41 nM. For the same molecule, the “IC50 of fatty acid uptake inhibition” value in [5] was over 1000 nM.

B3: 6G04 (antibody, human IgG1, V domains shown)
VH: QVQLQQSGAELVMPGASVKMSCKASGYTFTDYWMHWVKQRPGQGLEWIGSIDTSDSYTTYSQKFKGKATLTVDESSSTAYMELARLTSEDSAIYYCVRGEDYEGTWFAYWGQGTLVTVSA
VL: ETTVTQSPASLSVATGEKVTIRCITSTDIDDDMNWYQQKPGEPPKLLISEGNTLRPGVPSRFSSSGYGTDFVFTIENTLSEDVADYYCLQSDNMPLTFGAGTKLELK
notes: Chimeric: mouse variable regions on human IgG1 LALA (L234A/L235A); also called 06G04; 006G04
B3: the Kd with human CD36 (His-tagged) stood at 0.51 nM. Further, the off-rate (koff) with human CD36 (His-tagged) came to 0.0002 s⁻¹. Also, the on-rate (kon) with human CD36 (His-tagged) came out at 390000 M⁻¹ s⁻¹. Also, the EC50 in experiment [1] was 4.85 nM; in [2] it was 1.51 nM; in [3], 0.53 nM; in experiment [6] it was 1040 nM; in experiment [8] it was 1.15 nM; in [9], 0.56 nM. In addition, the “IC50 of oxLDL uptake inhibition (DiI-oxLDL, SCC25 cells)” value in [4] was 0.27 nM. In addition, in [5], the “IC50 of fatty acid uptake inhibition” value is 0.1 nM. The “Percent Fatty Acid Uptake Inhibition” value in experiment [7] came out at 35.1%.

B4: 16G04 (antibody, human IgG1, V domains shown)
VH: EVQLQQSGPELVKPGASVKISCKTSGYTFTEYTMHWVKQSHGKSLEWIGGINPYNGGTAYNQKFKNKATLTVDISSNTAFMEFRSLTSEDSAVYYCASDYFYGDANPWFAYWGQGTLVTVSA
VL: ETTVTQSPASLSMAIGEKVTIRCITSTDIDDDMNWYQQKPGEPPKLLISEGNTLRPGVPSRFSSSGYGTDFVFTIENMLSEDVADYYCLQSDNLPLTFGAGTKLELK
notes: Chimeric: mouse variable regions on human IgG1 LALA (L234A/L235A); also called 016G04
With B4, the half-maximal effective concentration (EC50) was 5.4 nM in [1]; 18.2 nM in experiment [2]; 1.36 nM in experiment [3]; 3.73 nM in experiment [10]; 9.19 nM in experiment [8]; 0.57 nM in experiment [9]. For the same molecule, in [5], the “IC50 of fatty acid uptake inhibition” value stood at 0.15 nM. Besides, the “Percent Fatty Acid Uptake Inhibition” value in experiment [7] was 45.2%.

B5: 1G05 (antibody, V domains shown)
VH: QVQLKQSGADLVRPGASVKLSCKASGYTFTDYYINWVKQRPGQGLEWIARIYPGSGNTYYNEKFKGKATLTAEKSSSTAYMQLSSLTSEDSAVYFCARGIGGGFGMDYWGQGTSVTVSS
VL: SIVMTQTPKFLLVSAGDRITITCKASQSVSDDVAWYQQKPGQSPKLLIYYASNRYTGVPDRFTGSGYGTDFTFTISTVQAEDLAVYFCQQDYSSPLTFGAGTKLEIK
notes: also called LALAPG
For B5, a half-maximal effect in experiment [11] (EC50) was put at 0.38 nM. Besides, in experiment [12], the “EC50 (read off the curve)” value was about 0.1 nM.

B6: 1G03 (antibody, V domains shown)
VH: QVQLKQSGADLVRPGASVKLSCKASGYTFTDYYINWVKQRPGQGLEWIARIYPGSGNTYYNEKFKGKATLTAEKSSSTAYMQLSSLTSEDSAVYFCARGIGGGFGMDYWGQGTSVTVSS
VL: SIVMTQTPKFLLVSAGDRITITCKASQSVSDDVAWYQQKPGQSPKLLIYYASNRYTGVPDRFTGSGYGTDFTFTISTVQAEDLAVYFCQQDYSSPLTFGAGTKLEIK
Regarding B6, a half-maximal response in experiment [11] (EC50) required 0.38 nM. In addition, the concentration giving a half-maximal response (EC50 (read off the curve)) in experiment [12] is about 0.1 nM.

B7: 1G07 (antibody, V domains shown)
VH: QVQLKQSGADLVRPGASVKLSCKASGYTFTDYYINWVKQRPGQGLEWIARIYPGSGNTYYNEKFKGKATLTAEKSSSTAYMQLSSLTSEDSAVYFCARGIGGGFGMDYWGQGTSVTVSS
VL: SIVMTQTPKFLLVSAGDRITITCKASQSVSDDVAWYQQKPGQSPKLLIYYASNRYTGVPDRFTGSGYGTDFTFTISTVQAEDLAVYFCQQDYSSPLTFGAGTKLEIK
notes: also called SPLE
Take B7: a half-maximal response in [11] (EC50) required 0.47 nM.

B8: 4G04 (antibody, human IgG1, V domains shown)
VH: QVQLQQPGSELRSPGSSVKLSCKDFDSEVFPIAYMTWVRQKPGHGFEWIGDILPSIGGTIYGEKFEDKATLDADTVSNTAYLELNSLTSEDSAIYYCARDYYGSSYGYFDVWGAGTAVTVSS
VL: DIVLTQSQKFMSTSVGDRVSVTCKASQNVGTNVAWYQQKPGQSPKALIYSASYRYSGVPDRFTGSGSGTDFTLTISNVQSEDLAEYFCQQYNSYPYTFGGGTKLEIK
notes: Chimeric: mouse variable regions on human IgG1 LALA (L234A/L235A); also called 04G04; 004G04
On to B8, for which the EC50 was 27.7 nM in [1], 9.89 nM in experiment [6] and 0.11 nM in [8]. Moreover, the “IC50 of fatty acid uptake inhibition” value in experiment [5] was 483 nM.

B9: 29G04 (antibody, human IgG1, V domains shown)
VH: QVQLQQSGTELVKPGASVKLSCKASGYTFTSYWMHWVKQRPGQGLEWIGEIDPSDSHTNYNQKFKGKATLTVDKSSSTAYMQLSSLTSEDSAVYYCAPIYYGLDNWGQGTTLTVSS
VL: DIVLTQSQKFMSTSVGDRVSVTCKASQNVGTNVAWYQQKPGQSPKALIYSASYRYSGVPDRFTGSGSGTDFTLTISNVQSEDLAEYFCQQYNSYPLTFGAGTKLELK
notes: Chimeric: mouse variable regions on human IgG1 LALA (L234A/L235A); also called 029G04
With B9, the EC50 is 0.32 nM in experiment [1], 0.36 nM in [3], 33.8 nM in experiment [6] and 0.37 nM in experiment [8]. Besides, in [5], the “IC50 of fatty acid uptake inhibition” value amounted to 0.08 nM.

B10: 27G04 (antibody, human IgG1, V domains shown)
VH: EVQLQQSGAELLKPGASVKISCKTTGYTFSNYWIEWVKQRPGHGLEWIGEILPGSGSPKYNEKFKGKATLTADTSSNTAFMQLSSLTSEDSAVYYCAPFILENYFDYWGQGTTLTVSS
VL: DIQMTQSHKFMSTSVGDRVSITCKASQDVSTAVAWYQQKPGQSPKLLIYSASYRYTGVPDRFTGSGSGTDFTFTISSVQAEDLAVYYCQQHYSTPRTFGGGTKLEIK
notes: Chimeric: mouse variable regions on human IgG1 LALA (L234A/L235A)
B10: the half-maximal effective concentration (EC50) was determined as 0.63 nM in experiment [1], 0.91 nM in experiment [3], 1.8 nM in experiment [6] and 0.15 nM in experiment [8].

The term koff denotes the rate constant with which the complex falls apart. By kon is commonly meant the rate constant with which the complex forms. The term EC50 denotes the midpoint of the concentration-response curve. As a reminder, the EC50 (read off the curve) is the midpoint of the concentration-response curve.

The record behind these values is patent US20250206836A1 (ONA THERAPEUTICS S L, published 2025).
